Test results published in publication PMC5916898.

Legend:
[1] = test system: PHF10 (human (HeLa)); assay: pull-down TMT-MS titration; details: apparent; histone H3K9ac K14ac; Pull-down: 150 mM NaCl (or LiCl), 50 mM Tris pH 8, 0.25% NP-40, 1 mM TCEP, protease inhibitors, 4 C, 2 h; EMSA with lysate in same buffer, RT 15 min; FP in …
[2] = test system: BAZ1B (human (HeLa)); assay: pull-down TMT-MS titration; details: apparent, Pull-down: 150 mM NaCl (or LiCl), 50 mM Tris pH 8, 0.25% NP-40, 1 mM TCEP, protease inhibitors, 4 C, 2 h, EMSA with lysate in same buffer, RT 15 min, FP in …
[3] = biological target: SMARCA4 (human (HeLa)) (UniProt P51532); assay: pull-down TMT-MS titration; details: apparent, Pull-down: 150 mM NaCl (or LiCl), 50 mM Tris pH 8, 0.25% NP-40, 1 mM TCEP, protease inhibitors, 4 C, 2 h, EMSA with lysate in same buffer, RT 15 min, FP in …
SMARCA4 (human (HeLa)), sequence (P51532 whole entry): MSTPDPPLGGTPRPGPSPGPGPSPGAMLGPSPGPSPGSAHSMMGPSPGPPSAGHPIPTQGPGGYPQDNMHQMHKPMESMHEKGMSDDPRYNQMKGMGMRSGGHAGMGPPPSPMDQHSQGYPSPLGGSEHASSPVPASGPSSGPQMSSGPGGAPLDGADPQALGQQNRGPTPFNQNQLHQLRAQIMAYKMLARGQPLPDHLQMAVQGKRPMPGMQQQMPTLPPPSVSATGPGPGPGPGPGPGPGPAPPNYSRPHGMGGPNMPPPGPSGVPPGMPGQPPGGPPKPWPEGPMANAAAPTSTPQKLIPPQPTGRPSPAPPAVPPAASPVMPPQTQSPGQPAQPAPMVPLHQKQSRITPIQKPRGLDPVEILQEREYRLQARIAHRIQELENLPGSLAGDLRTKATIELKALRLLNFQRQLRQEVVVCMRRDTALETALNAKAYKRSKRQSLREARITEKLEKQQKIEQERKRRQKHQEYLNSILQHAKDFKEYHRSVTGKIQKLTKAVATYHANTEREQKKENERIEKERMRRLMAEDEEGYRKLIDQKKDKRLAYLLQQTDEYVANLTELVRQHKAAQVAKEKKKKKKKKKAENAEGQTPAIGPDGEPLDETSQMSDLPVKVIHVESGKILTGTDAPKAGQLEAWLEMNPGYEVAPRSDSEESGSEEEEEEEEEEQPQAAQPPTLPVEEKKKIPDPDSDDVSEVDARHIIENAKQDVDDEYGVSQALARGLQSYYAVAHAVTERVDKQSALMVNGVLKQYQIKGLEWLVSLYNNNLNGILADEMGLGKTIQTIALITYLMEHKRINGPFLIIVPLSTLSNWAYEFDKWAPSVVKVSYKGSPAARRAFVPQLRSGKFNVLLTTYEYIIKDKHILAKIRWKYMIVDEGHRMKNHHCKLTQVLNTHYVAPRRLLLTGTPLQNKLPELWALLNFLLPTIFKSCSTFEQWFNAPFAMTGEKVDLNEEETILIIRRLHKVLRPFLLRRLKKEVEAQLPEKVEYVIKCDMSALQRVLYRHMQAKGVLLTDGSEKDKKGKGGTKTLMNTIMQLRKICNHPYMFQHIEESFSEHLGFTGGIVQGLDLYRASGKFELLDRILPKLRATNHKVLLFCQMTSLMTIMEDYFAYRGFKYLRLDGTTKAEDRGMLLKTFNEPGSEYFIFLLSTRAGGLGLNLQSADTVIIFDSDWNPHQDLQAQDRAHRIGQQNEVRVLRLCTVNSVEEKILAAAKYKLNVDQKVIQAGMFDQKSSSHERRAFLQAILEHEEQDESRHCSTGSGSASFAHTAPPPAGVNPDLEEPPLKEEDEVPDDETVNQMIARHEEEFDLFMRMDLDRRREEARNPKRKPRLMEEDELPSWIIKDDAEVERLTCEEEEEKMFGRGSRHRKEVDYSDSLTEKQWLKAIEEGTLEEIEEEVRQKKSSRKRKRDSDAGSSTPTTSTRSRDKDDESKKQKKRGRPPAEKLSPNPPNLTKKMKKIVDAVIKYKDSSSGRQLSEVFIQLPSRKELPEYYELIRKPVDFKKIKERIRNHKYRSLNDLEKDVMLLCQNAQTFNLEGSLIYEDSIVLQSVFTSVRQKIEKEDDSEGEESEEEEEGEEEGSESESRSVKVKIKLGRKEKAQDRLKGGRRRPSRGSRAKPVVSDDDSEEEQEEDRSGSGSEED

[4] = test system: SMARCA2 (human (HeLa)); assay: pull-down TMT-MS titration; details: apparent, Pull-down: 150 mM NaCl (or LiCl), 50 mM Tris pH 8, 0.25% NP-40, 1 mM TCEP, protease inhibitors, 4 C, 2 h, EMSA with lysate in same buffer, RT 15 min, FP in …
[5] = test system: BPTF (human (HeLa)); assay: pull-down TMT-MS titration; details: apparent, Pull-down: 150 mM NaCl (or LiCl), 50 mM Tris pH 8, 0.25% NP-40, 1 mM TCEP, protease inhibitors, 4 C, 2 h, EMSA with lysate in same buffer, RT 15 min, FP in …
[6] = test system: BAZ1A (human (HeLa)); assay: pull-down TMT-MS titration; details: apparent, Pull-down: 150 mM NaCl (or LiCl), 50 mM Tris pH 8, 0.25% NP-40, 1 mM TCEP, protease inhibitors, 4 C, 2 h, EMSA with lysate in same buffer, RT 15 min, FP in …
[7] = biological target: SMARCA5 (human (HeLa)) (UniProt O60264); assay: pull-down TMT-MS titration; details: apparent, Pull-down: 150 mM NaCl (or LiCl), 50 mM Tris pH 8, 0.25% NP-40, 1 mM TCEP, protease inhibitors, 4 C, 2 h, EMSA with lysate in same buffer, RT 15 min, FP in …
SMARCA5 (human (HeLa)), sequence (O60264 2-1052): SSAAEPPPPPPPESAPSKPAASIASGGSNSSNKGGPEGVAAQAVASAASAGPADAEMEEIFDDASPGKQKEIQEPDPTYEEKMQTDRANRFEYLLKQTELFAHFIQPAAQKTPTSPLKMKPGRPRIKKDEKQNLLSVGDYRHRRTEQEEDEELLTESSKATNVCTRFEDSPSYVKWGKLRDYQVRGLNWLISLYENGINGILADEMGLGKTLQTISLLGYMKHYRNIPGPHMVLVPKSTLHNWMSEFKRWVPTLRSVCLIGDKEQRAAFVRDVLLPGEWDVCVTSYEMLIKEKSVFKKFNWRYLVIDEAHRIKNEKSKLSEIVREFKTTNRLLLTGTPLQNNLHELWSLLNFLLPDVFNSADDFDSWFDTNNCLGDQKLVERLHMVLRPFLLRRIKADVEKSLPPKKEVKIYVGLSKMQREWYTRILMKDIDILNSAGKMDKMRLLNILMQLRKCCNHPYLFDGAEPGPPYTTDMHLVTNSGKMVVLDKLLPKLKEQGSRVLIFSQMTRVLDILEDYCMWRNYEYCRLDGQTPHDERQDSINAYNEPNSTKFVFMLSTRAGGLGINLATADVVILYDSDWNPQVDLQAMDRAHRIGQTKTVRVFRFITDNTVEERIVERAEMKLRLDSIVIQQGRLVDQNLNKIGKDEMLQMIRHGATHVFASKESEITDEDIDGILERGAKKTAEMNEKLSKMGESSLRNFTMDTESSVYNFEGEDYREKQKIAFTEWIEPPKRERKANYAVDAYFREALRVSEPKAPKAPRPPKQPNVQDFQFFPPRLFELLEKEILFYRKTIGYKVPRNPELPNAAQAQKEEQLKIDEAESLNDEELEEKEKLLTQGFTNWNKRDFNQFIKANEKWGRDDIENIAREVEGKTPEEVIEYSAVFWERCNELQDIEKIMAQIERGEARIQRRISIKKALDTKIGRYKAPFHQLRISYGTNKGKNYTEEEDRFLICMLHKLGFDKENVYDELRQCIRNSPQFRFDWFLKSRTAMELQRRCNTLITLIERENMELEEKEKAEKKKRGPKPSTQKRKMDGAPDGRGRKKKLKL

[8] = biological target: H3K9AcK14Ac modified di-nucleosome (human) (UniProt P68431); assay: affinity purification with mass spectrometry; titration series of ten concentrations of biotinylated recombinant di-nucleosome on streptavidin beads; 100 ug HeLa nuclear lysate per pulldown in PBB (150 mM NaCl, 50 mM Tris pH 8, 0.25% NP-40, 1 mM TCEP), 2 h at 4 °C; 10-plex TMT, SPS-MS3; apparent Kd from a Hill-like fit, triplicate, r^2 > 0.9
[9] = test system: C17orf49 (human (HeLa)); assay: pull-down TMT-MS titration; details: apparent; histone H3K4me3; Pull-down: 150 mM NaCl (or LiCl), 50 mM Tris pH 8, 0.25% NP-40, 1 mM TCEP, protease inhibitors, 4 C, 2 h; EMSA with lysate in same buffer, RT 15 min; FP in …
[10] = biological target: GST-KLF4-ZF (UniProt O43474); assay: fluorescence intensity (de-quenching); details: Pull-down: 150 mM NaCl (or LiCl), 50 mM Tris pH 8, 0.25% NP-40, 1 mM TCEP, protease inhibitors, 4 C, 2 h; EMSA with lysate in same buffer, RT 15 min; FP in …
GST-KLF4-ZF, sequence (O43474 whole entry): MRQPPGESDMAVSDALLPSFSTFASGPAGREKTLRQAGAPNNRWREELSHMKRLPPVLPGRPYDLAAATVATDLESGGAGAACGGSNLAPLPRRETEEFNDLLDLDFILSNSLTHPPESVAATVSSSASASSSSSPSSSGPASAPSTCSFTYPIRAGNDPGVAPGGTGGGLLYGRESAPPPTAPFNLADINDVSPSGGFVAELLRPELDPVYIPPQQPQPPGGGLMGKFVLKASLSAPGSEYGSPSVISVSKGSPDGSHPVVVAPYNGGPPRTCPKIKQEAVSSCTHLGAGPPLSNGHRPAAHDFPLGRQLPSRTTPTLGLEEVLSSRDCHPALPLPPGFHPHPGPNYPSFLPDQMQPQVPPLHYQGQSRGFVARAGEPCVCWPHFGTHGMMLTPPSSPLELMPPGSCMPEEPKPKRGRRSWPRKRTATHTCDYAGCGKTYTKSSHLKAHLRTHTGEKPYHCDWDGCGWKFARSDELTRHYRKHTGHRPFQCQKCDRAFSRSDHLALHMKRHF

[11] = biological target: GST-KLF4-ZF (UniProt O43474); assay: fluorescence polarization; details: Pull-down: 150 mM NaCl (or LiCl), 50 mM Tris pH 8, 0.25% NP-40, 1 mM TCEP, protease inhibitors, 4 C, 2 h; EMSA with lysate in same buffer, RT 15 min; FP in …

PHF10, sequence (Q8WUB8 whole entry): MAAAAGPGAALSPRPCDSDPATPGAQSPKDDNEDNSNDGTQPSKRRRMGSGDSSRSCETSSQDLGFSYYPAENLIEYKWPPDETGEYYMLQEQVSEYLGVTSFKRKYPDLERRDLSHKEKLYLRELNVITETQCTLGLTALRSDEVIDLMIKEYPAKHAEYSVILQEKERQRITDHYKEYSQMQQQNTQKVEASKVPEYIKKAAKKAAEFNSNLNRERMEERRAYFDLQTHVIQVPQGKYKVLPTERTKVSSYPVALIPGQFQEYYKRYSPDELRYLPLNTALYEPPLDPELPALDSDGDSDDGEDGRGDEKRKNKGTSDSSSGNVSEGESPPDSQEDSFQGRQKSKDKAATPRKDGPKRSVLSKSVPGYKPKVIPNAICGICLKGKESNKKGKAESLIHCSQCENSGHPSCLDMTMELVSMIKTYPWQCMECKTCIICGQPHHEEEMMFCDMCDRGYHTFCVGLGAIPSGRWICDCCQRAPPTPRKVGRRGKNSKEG

For H3K9AcK14Ac di-nucleosome, the Kd [1] was 35 nM, the Kd ([2]; histone H3K9ac K14ac) was 15 nM and the Kd ([3]; histone H3K9ac K14ac) was 68.7 nM. The Kd ([4]; histone H3K9ac K14ac) was 35.9 nM, the Kd ([5]; histone H3K9ac K14ac) was 27.9 nM and the Kd ([6]; histone H3K9ac K14ac) was 114 nM. For the same substance, the Kd ([7]; histone H3K9ac K14ac) was 52.6 nM.
“PHF10 (from UniProt Q8WUB8 1-498) (natural protein)” was tested, and the Kd [8] was 35 nM.
For H3K4me3 di-nucleosome, the Kd ([2]; histone H3K4me3) was 90.6 nM, the Kd ([3]; histone H3K4me3) was 123 nM and the Kd ([4]; histone H3K4me3) was 51.8 nM. For the same substance, the Kd ([5]; histone H3K4me3) was 54 nM, the Kd ([6]; histone H3K4me3) was 100 nM and the Kd ([7]; histone H3K4me3) was 82.4 nM. The Kd [9] was 68.7 nM.
Substance unmodified H3 di-nucleosome has a Kd [2] of 122 nM, a Kd [3] of 174 nM and a Kd [4] of 162 nM. It also gave a Kd [5] of 53.2 nM, a Kd [6] of 151 nM and a Kd [7] of 102 nM.
Substance “GAGAGCCCCGCCCCCTGGCT (double strand) [SP/KLF wild-type Cy5]” has a Kd [10] of 20.2 nM and a Kd [11] of 21.8 nM.
